Patent US20090029370A1
Several values for one entry are separate records, joined by “and”; a condition that tells them apart may be missing. Identical values can stand only once.

What was measured:
[1] = target: bacteriophage λN peptide fused to the N-terminus of β-EGFP (bacteriophage λ; Aequorea victoria) [GFP: P42212]; experiment: cell-based or functional assay
[2] = target: β-fragment of EGFP (betaCys-fragment, 159-234 aa) biotinylated, tagged with streptavidin and a biotinylated 21-nt oligonucleotide (Aequorea victoria) [GFP: P42212]; experiment: cell-based or functional assay

Row | t½ of fluorescence increase upon mixing [2] | Substance | average fluorescence over background (no RNA component), 0.01 mM IPTG [1] | signal/background ratio at reduced IPTG [1]
1 |  | α-EGFP fused at its C-terminus to HTLV-1 Rex peptide (from UniProt P42212 1-158) | 10 fold and 15 fold | 10 fold and 20 fold
2 | 1.67 min | α-fragment of EGFP (alphaCys-fragment, 1-158) biotinylated, tagged with streptavidin and a biotinylated 21-nt oligonucleotide (from UniProt P42212 1-158; P22629 37-163) |  | 
